Assay results: patent publication CN115353562A

Tests used:
[1] = molecular target: H5N1 HA蛋白(BIOHJSW，货号orb-EHJ075488) (H5N1 avian influenza virus)
H1 HA = test: indirect ELISA, coated HA 5 μg/mL, hybridoma supernatant
H3 HA = test: as above
[2] = molecular target: H5N1 HA蛋白(BIOHJSW，货号orb-EHJ075488) (H5N1 avian influenza virus); test: as above

B1: H5-3F5单克隆抗体 (antibody, V domains shown)
VH: EVQLVESGGGLVQPGGSLRLSCAASGFSLSEAVSGWVRQAPGKGLEWVGVCNNRIPFYLTWCKLFRFTISKDNSKNTLYLQMNSLRAEDTAVYYCARQRSYCNFQPHPNGWGQGTLVTVSS
VL: AYQMTQSPSSVSASVGDRVTITCGQNMMWIPAWLWYQQKPGKAPKLLIYETNGEHYGVPSRFSGSGSGTDFTLTISSLQPEDFATYYCMMMNARKSLQATKFGGGTKVEIK
Binder B1 has a Kd [1] of 0.407 nM, an OD450 (H1 HA) of 0.231 OD450 and an OD450 (H3 HA) of 0.412 OD450. For the same binder, the OD450 [2] was 2.62 OD450.
